Measurements reported in article PMC9482650, “Quantitative fragmentomics allow affinity mapping of interactomes” (Nature Communications, 2022).
Residue numbers refer to the chain shown, from its start.

Key:
Experiment in all cases: holdup assay
Parameters in all cases: key: below the threshold = too weak to quantify, mostly under pKd 3.1 to 4
Details in all cases: plain residues with an end cap or a label only (N-terminal biotin on a linker: ado-ado)
AHNAK1, Q09666 = target: AHNAK1, Q09666
APBA1_2, Q02410 = target: T1, APBA1_2, Q02410
T1 sequence (Q02410 742-832, limits assumed, looked up): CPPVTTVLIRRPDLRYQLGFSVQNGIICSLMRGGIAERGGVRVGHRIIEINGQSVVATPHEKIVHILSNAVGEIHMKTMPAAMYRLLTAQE

APBA2_1, Q99767 = target: T2, APBA2_1, Q99767
T2 sequence (Q99767 563-664, limits assumed, looked up): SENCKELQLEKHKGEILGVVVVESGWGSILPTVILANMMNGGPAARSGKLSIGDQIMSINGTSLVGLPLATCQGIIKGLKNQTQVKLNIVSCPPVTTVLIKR

ARHGEF11, O15085 = target: T3, ARHGEF11, O15085
T3 sequence (O15085 42-136, limits assumed, looked up): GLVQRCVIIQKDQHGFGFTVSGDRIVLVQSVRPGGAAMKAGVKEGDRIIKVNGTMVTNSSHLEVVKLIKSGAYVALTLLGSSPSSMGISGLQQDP

DLG1_2, Q12959 = target: DLG1_2, Q12959
DLG2_3, Q15700 = target: DLG2_3, Q15700
DLG3_1, Q92796 = target: T4, DLG3_1, Q92796
T4 sequence (Q92796 125-227, limits assumed, looked up): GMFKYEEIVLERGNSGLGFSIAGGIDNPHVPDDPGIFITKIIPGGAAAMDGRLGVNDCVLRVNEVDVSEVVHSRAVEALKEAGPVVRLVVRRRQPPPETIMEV

DLG5_1, Q8TDM6 = target: DLG5_1, Q8TDM6
FRMPD2_3, Q68DX3 = target: FRMPD2_3, Q68DX3
FRMPD3, Q5JV73 = target: FRMPD3, Q5JV73
GRASP, Q7Z6J2 = target: GRASP, Q7Z6J2
GRIP2_7, Q9C0E4 = target: GRIP2_7, Q9C0E4
HTRA2, O43464 = target: HTRA2, O43464
Inadl_10, Q8NI35 = target: Inadl_10, Q8NI35
Inadl_9, Q8NI35 = target: Inadl_9, Q8NI35
LIMK2, P53671 = target: LIMK2, P53671
LIN7A, O14910 = target: T5, LIN7A, O14910
T5 sequence (O14910 103-200, limits assumed, looked up): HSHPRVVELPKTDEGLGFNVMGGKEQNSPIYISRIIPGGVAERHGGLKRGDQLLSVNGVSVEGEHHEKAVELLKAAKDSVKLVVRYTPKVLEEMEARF

LIN7C, Q9NUP9 = target: T6, LIN7C, Q9NUP9
T6 sequence (Q9NUP9 88-185, limits assumed, looked up): T5 sequence (O14910 103-200, limits assumed, looked up) with D13E, V20I, V40I, E42D, K77Q, D78G, S79K, A96S

LNX1_1, Q8TBB1 = target: LNX1_1, Q8TBB1
LNX1_2, Q8TBB1 = target: LNX1_2, Q8TBB1
MAGI2_6, Q86UL8 = target: MAGI2_6, Q86UL8
MAGI3_2, Q5TCQ9 = target: MAGI3_2, Q5TCQ9
PARD3B_1, Q8TEW8 = target: T7, PARD3B_1, Q8TEW8
T7 sequence (Q8TEW8 196-299, limits assumed, looked up): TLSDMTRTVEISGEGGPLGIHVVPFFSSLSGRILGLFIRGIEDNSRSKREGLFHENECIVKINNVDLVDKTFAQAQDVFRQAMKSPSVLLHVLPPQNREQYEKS

PCLO, Q9Y6V0 = target: T8, PCLO, Q9Y6V0
T8 sequence (Q9Y6V0 4491-4600, limits assumed, looked up): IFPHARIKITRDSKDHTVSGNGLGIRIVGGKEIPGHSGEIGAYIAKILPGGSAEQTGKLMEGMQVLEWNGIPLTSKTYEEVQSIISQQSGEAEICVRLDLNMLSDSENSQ

RAPGEF6, Q8TEU7 = target: T9, RAPGEF6, Q8TEU7
T9 sequence (Q8TEU7 525-625, limits assumed, looked up): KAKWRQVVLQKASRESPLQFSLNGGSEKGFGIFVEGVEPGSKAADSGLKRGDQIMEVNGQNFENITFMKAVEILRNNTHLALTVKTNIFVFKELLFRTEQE

SNTG2, Q9NY99 = target: T10, SNTG2, Q9NY99
T10 sequence (Q9NY99 68-166, limits assumed, looked up): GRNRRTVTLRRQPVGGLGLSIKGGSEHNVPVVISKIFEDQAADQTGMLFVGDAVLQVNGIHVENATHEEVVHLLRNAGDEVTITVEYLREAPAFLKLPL

TX1BP3, O14907 = target: T11, TX1BP3, O14907
T11 sequence (O14907 10-122, limits assumed, looked up): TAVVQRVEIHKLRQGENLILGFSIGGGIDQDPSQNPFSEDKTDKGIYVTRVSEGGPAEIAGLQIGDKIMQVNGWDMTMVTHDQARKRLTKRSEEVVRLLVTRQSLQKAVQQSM

Sequence of LNX1_2, Q8TBB1 (Q8TBB1 371-470): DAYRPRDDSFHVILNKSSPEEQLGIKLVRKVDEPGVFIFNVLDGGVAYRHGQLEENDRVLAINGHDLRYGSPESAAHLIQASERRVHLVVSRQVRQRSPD
Sequence of GRASP, Q7Z6J2 (Q7Z6J2 96-193): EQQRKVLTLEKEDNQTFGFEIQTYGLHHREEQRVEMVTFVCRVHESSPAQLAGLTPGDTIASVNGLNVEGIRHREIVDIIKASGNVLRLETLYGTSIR
Sequence of DLG5_1, Q8TDM6 (Q8TDM6 617-713): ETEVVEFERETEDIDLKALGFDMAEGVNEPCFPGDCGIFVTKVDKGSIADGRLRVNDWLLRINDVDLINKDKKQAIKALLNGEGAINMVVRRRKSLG
Sequence of DLG1_2, Q12959 (Q12959 314-412): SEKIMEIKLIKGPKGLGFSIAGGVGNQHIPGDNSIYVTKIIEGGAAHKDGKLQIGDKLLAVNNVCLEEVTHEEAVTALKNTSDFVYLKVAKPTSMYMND
Sequence of LNX1_1, Q8TBB1 (Q8TBB1 261-371): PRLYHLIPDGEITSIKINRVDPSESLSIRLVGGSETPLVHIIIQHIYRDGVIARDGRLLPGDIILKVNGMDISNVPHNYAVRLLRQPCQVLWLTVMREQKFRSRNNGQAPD
Sequence of FRMPD2_3, Q68DX3 (Q68DX3 1073-1166): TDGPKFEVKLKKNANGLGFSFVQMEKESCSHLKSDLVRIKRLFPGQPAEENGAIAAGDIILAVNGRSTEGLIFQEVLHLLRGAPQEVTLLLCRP
Sequence of GRIP2_7, Q9C0E4 (Q9C0E4 934-1023): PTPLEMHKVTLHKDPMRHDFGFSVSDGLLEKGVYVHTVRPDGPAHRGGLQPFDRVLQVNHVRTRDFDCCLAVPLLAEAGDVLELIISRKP
Sequence of FRMPD3, Q5JV73 (Q5JV73 12-100): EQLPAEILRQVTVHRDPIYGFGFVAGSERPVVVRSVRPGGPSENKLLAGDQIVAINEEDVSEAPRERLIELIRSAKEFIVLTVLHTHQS
Sequence of LIMK2, P53671 (P53671 143-248): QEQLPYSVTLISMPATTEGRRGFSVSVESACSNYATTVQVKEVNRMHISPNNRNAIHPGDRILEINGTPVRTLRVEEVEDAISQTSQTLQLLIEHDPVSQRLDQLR
Sequence of AHNAK1, Q09666 (Q09666 4-100): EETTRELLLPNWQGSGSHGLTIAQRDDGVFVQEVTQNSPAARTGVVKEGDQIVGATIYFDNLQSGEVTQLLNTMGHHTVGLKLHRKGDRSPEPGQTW
Sequence of HTRA2, O43464 (O43464 355-458): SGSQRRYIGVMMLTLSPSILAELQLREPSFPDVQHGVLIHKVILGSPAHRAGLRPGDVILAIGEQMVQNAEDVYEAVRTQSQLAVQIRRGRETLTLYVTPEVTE
Sequence of Inadl_9, Q8NI35 (Q8NI35 1530-1615): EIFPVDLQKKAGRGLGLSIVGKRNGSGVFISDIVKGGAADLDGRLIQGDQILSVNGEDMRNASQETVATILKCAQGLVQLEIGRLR
Sequence of MAGI2_6, Q86UL8 (Q86UL8 1141-1229): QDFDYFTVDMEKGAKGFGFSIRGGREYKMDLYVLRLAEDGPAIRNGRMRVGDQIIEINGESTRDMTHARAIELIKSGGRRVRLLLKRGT
Sequence of Inadl_10, Q8NI35 (Q8NI35 1673-1763): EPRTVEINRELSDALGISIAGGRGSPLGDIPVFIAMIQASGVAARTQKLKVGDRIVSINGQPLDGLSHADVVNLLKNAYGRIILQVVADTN
Sequence of MAGI3_2, Q5TCQ9 (Q5TCQ9 398-503): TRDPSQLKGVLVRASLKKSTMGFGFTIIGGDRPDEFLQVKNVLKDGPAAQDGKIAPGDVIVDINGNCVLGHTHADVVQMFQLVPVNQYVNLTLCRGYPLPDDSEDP

B1: ERBB4, Q15303 (peptide)
chain: PPYRHRNTVV
- pKd (AHNAK1, Q09666): below the threshold
- pKd (APBA1_2, Q02410): 3.53
- pKd (APBA2_1, Q99767): below the threshold
- pKd (ARHGEF11, O15085): 4.06
- pKd (DLG1_2, Q12959): 5.25
- pKd (DLG2_3, Q15700): 4.35
- pKd (DLG3_1, Q92796): 4.21
- pKd (DLG5_1, Q8TDM6): below the threshold
- pKd (FRMPD2_3, Q68DX3): below the threshold
- pKd (FRMPD3, Q5JV73): below the threshold
- pKd (GRASP, Q7Z6J2): 4.04
- pKd (GRIP2_7, Q9C0E4): below the threshold
- pKd (HTRA2, O43464): below the threshold
- pKd (Inadl_10, Q8NI35): below the threshold
- pKd (Inadl_9, Q8NI35): 3.53
- pKd (LIMK2, P53671): below the threshold
- pKd (LIN7A, O14910): below the threshold
- pKd (LIN7C, Q9NUP9): below the threshold
- pKd (LNX1_1, Q8TBB1): 4.23
- pKd (LNX1_2, Q8TBB1): 3.54
- pKd (MAGI2_6, Q86UL8): below the threshold
- pKd (MAGI3_2, Q5TCQ9): 4.79
- pKd (PARD3B_1, Q8TEW8): below the threshold
- pKd (PCLO, Q9Y6V0): below the threshold
- pKd (RAPGEF6, Q8TEU7): below the threshold
- pKd (SNTG2, Q9NY99): 3.89
- pKd (TX1BP3, O14907): 4.13

B2: BANF1, O75531 (peptide)
chain: CLREWCDAFL
- pKd (AHNAK1, Q09666): below the threshold
- pKd (APBA1_2, Q02410): 3.75
- pKd (APBA2_1, Q99767): below the threshold
- pKd (ARHGEF11, O15085): 3.49
- pKd (DLG1_2, Q12959): below the threshold
- pKd (DLG2_3, Q15700): 3.61
- pKd (DLG3_1, Q92796): below the threshold
- pKd (DLG5_1, Q8TDM6): below the threshold
- pKd (FRMPD2_3, Q68DX3): below the threshold
- pKd (FRMPD3, Q5JV73): 3.66
- pKd (GRASP, Q7Z6J2): 3.51
- pKd (GRIP2_7, Q9C0E4): below the threshold
- pKd (HTRA2, O43464): 3.91
- pKd (Inadl_10, Q8NI35): below the threshold
- pKd (Inadl_9, Q8NI35): below the threshold
- pKd (LIMK2, P53671): 3.61
- pKd (LIN7A, O14910): below the threshold
- pKd (LIN7C, Q9NUP9): 3.66
- pKd (LNX1_1, Q8TBB1): below the threshold
- pKd (LNX1_2, Q8TBB1): below the threshold
- pKd (MAGI2_6, Q86UL8): 4.36
- pKd (MAGI3_2, Q5TCQ9): below the threshold
- pKd (PARD3B_1, Q8TEW8): 5.18
- pKd (PCLO, Q9Y6V0): below the threshold
- pKd (RAPGEF6, Q8TEU7): 3.47
- pKd (SNTG2, Q9NY99): below the threshold
- pKd (TX1BP3, O14907): 4.62

B3: AQP6, Q13520 (peptide)
chain: GSGAVEMESV
- pKd (AHNAK1, Q09666): below the threshold
- pKd (APBA1_2, Q02410): 3.58
- pKd (APBA2_1, Q99767): below the threshold
- pKd (ARHGEF11, O15085): below the threshold
- pKd (DLG1_2, Q12959): below the threshold
- pKd (DLG2_3, Q15700): below the threshold
- pKd (DLG3_1, Q92796): below the threshold
- pKd (DLG5_1, Q8TDM6): below the threshold
- pKd (FRMPD2_3, Q68DX3): below the threshold
- pKd (FRMPD3, Q5JV73): below the threshold
- pKd (GRASP, Q7Z6J2): below the threshold
- pKd (GRIP2_7, Q9C0E4): below the threshold
- pKd (HTRA2, O43464): below the threshold
- pKd (Inadl_10, Q8NI35): below the threshold
- pKd (Inadl_9, Q8NI35): below the threshold
- pKd (LIMK2, P53671): below the threshold
- pKd (LIN7A, O14910): below the threshold
- pKd (LIN7C, Q9NUP9): below the threshold
- pKd (LNX1_1, Q8TBB1): below the threshold
- pKd (LNX1_2, Q8TBB1): below the threshold
- pKd (MAGI2_6, Q86UL8): 3.51
- pKd (MAGI3_2, Q5TCQ9): below the threshold
- pKd (PARD3B_1, Q8TEW8): below the threshold
- pKd (PCLO, Q9Y6V0): below the threshold
- pKd (RAPGEF6, Q8TEU7): below the threshold
- pKd (SNTG2, Q9NY99): below the threshold
- pKd (TX1BP3, O14907): below the threshold

B4: TRAF2, Q12933 (peptide)
chain: IKAIVDLTGL
- pKd (AHNAK1, Q09666): below the threshold
- pKd (APBA1_2, Q02410): below the threshold
- pKd (APBA2_1, Q99767): below the threshold
- pKd (ARHGEF11, O15085): below the threshold
- pKd (DLG1_2, Q12959): below the threshold
- pKd (DLG2_3, Q15700): below the threshold
- pKd (DLG3_1, Q92796): below the threshold
- pKd (DLG5_1, Q8TDM6): below the threshold
- pKd (FRMPD2_3, Q68DX3): below the threshold
- pKd (FRMPD3, Q5JV73): below the threshold
- pKd (GRASP, Q7Z6J2): 3.94
- pKd (GRIP2_7, Q9C0E4): below the threshold
- pKd (HTRA2, O43464): below the threshold
- pKd (Inadl_10, Q8NI35): below the threshold
- pKd (Inadl_9, Q8NI35): below the threshold
- pKd (LIMK2, P53671): below the threshold
- pKd (LIN7A, O14910): below the threshold
- pKd (LIN7C, Q9NUP9): below the threshold
- pKd (LNX1_1, Q8TBB1): below the threshold
- pKd (LNX1_2, Q8TBB1): below the threshold
- pKd (MAGI2_6, Q86UL8): below the threshold
- pKd (MAGI3_2, Q5TCQ9): below the threshold
- pKd (PARD3B_1, Q8TEW8): below the threshold
- pKd (PCLO, Q9Y6V0): below the threshold
- pKd (RAPGEF6, Q8TEU7): below the threshold
- pKd (SNTG2, Q9NY99): below the threshold
- pKd (TX1BP3, O14907): below the threshold

B5: HCN2, Q9UL51 (peptide)
chain: SARSRLSSNL
- pKd (AHNAK1, Q09666): below the threshold
- pKd (APBA1_2, Q02410): below the threshold
- pKd (APBA2_1, Q99767): below the threshold
- pKd (ARHGEF11, O15085): 3.74
- pKd (DLG1_2, Q12959): below the threshold
- pKd (DLG2_3, Q15700): below the threshold
- pKd (DLG3_1, Q92796): below the threshold
- pKd (DLG5_1, Q8TDM6): below the threshold
- pKd (FRMPD2_3, Q68DX3): below the threshold
- pKd (FRMPD3, Q5JV73): below the threshold
- pKd (GRASP, Q7Z6J2): 4
- pKd (GRIP2_7, Q9C0E4): below the threshold
- pKd (HTRA2, O43464): below the threshold
- pKd (Inadl_10, Q8NI35): below the threshold
- pKd (Inadl_9, Q8NI35): below the threshold
- pKd (LIMK2, P53671): below the threshold
- pKd (LIN7A, O14910): below the threshold
- pKd (LIN7C, Q9NUP9): below the threshold
- pKd (LNX1_1, Q8TBB1): below the threshold
- pKd (LNX1_2, Q8TBB1): below the threshold
- pKd (MAGI2_6, Q86UL8): below the threshold
- pKd (MAGI3_2, Q5TCQ9): 4.18
- pKd (PARD3B_1, Q8TEW8): 3.71
- pKd (PCLO, Q9Y6V0): below the threshold
- pKd (RAPGEF6, Q8TEU7): below the threshold
- pKd (SNTG2, Q9NY99): below the threshold
- pKd (TX1BP3, O14907): 4.23
